Assay results published in publication PMC2203988.

System: U1A N-terminal RRM
Experiment: EMSA
Settings: 10 mM Tris-HCl pH 7.4, 250 mM NaCl, 1 mM EDTA, 0.5% Triton X-100, 1 mg/mL tRNA, 25 pM RNA, at least 45 min, gel at 25 C (A6P, A6c1A and A6G of Table 3 omitted: …)

A1-2AP SL2 RNA
Kd (loop A1 to 2-aminopurine): 40 nM

A1DAP SL2 RNA
Kd (loop A1 to 2,6-diaminopurine (DAP)): 40 nM

A1G SL2 RNA
Kd: 1400 nM

A1G/C10A SL2 RNA
Kd: 1300 nM

A1I SL2 RNA
Kd (loop A1 to inosine): 16 nM

A1P SL2 RNA
Kd (loop A1 to purine (6-NH2 replaced by H)): 0.9 nM

A1c1A SL2 RNA
Kd (loop A1 to 1-deazaadenosine (c1A)): 0.7 nM

A6-2AP SL2 RNA
Kd (loop A6 to 2-aminopurine): 700 nM

A6DAP SL2 RNA
Kd (loop A6 to 2,6-diaminopurine (DAP)): 110 nM

A6I SL2 RNA
Kd (loop A6 to inosine): 8000 nM

C10A SL2 RNA
Kd: 0.6 nM

G4-2AP SL2 RNA
Kd (loop G4 to 2-aminopurine): 4000 nM

G4A SL2 RNA
Kd: 11000 nM

G4DAP SL2 RNA
Kd (loop G4 to 2,6-diaminopurine (DAP)): 2000 nM

G4I SL2 RNA
Kd (loop G4 to inosine): 3 nM

G4c7dG SL2 RNA
Kd (loop G4 to 7-deaza-2'-deoxyguanosine (c7dG)): 31 nM

G4dG SL2 RNA
Kd (loop G4 to 2'-deoxyguanosine): 0.11 nM

WT SL2 RNA
Kd: 0.3 nM
